Results on three molecules are retold here after publication PMC8932546 (The Journal of Experimental Medicine, 2022).

First the molecules themselves.
B1: 7-269 expressed as recombinant IgG (antibody, V domains shown)
VH: QMQLVESGGGVVQPGRSLRLSCAASRFDFNRFGMHWVRQAPGKGLEWVAYMSYDGGDRYYADSVKGRFTISRDNSKSTLHLQMDSLRPEDTAVYYCAKDDILGDCSTSHCYWGYYYQGMDVWGHGTTVTVSS
VL: EIVMTQSPDTLSVSPGERVTLSCRASQSVGSNLVWYQQKPGQSTRVLIYGASTRAATVPARFSGGGSGTEFTLTISSVQSEDFAVYYCYHYNNWPRGSFGQGTKLEIK
B2: 10-1074 IgG (antibody, V domains shown)
VH: QVQLQESGPGLVKPSETLSVTCSVSGDSMNNYYWTWIRQSPGKGLEWIGYISDRESATYNPSLNSRVVISRDTSKNQLSLKLNSVTPADTAVYYCATARRGQRIYGVVSFGEFFYYYSMDVWGKGTTVTVSS
VL: LSVALGETARISCGRQALGSRAVQWYQHRPGQAPILLIYNNQDRPSGIPERFSGTPDINFGTRATLTISGVEAGDEADYYCHMWDSRSGFSWSFGGATRLTVL
B3: BG18 IgG (antibody, V domains shown)
VH: QVQLRESGPGLVKPSETLSLSCTVSQDSRPSDHSWTWVRQSPGKALEWIGDIHYNGATTYNPSLRSRVRIELDQSIPRFSLKMTSMTAADTGMYYCARNAIRIYGVVALGEWFHYGMDVWGQGTAVTVSS
VL: SSELTQPPSVSVSPGQTARITCSGAPLTSRFTYWYRQKPGQAPVLIISRSSQRSSGWSGRFSASWSGTTVTLTIRGVQADDEADYYCQSSDTSDSYKMFGGGTKLTVL

Sequence of YU2 gp120 (P35961 whole entry, looked up): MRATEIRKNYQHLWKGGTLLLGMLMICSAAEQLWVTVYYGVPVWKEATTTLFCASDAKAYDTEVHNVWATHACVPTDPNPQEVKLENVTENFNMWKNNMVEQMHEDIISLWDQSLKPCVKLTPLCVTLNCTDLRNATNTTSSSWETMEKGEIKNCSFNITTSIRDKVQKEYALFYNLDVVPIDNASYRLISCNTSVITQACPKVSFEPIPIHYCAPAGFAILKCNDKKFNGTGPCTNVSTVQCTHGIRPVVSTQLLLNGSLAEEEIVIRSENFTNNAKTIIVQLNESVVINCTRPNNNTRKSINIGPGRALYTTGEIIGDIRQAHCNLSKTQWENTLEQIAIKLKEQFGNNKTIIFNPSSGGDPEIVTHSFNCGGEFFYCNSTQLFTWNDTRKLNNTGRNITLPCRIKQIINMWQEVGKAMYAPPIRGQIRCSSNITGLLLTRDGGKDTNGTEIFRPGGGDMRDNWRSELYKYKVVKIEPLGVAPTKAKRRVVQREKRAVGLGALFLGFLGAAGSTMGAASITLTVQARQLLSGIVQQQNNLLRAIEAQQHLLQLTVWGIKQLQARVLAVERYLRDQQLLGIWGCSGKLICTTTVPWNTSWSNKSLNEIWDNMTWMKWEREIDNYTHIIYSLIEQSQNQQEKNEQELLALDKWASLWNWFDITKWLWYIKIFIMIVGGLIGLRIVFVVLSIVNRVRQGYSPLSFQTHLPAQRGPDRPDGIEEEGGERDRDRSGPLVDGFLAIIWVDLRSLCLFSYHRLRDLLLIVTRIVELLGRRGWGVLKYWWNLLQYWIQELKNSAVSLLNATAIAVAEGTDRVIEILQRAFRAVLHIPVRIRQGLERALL

This experiment addresses YU2 gp120 (HIV-1 clade B, isolate YU2, UniProt P35961). The experiment is described as follows: ELISA. For orientation: An ELISA detects its analyte on a solid surface through an enzyme-linked reagent.
For B1, the binding result is given as “binds”.

Consider B2, for which the binding result is listed as “binds”.

On to B3, for which the binding result is reported as “binds”.
